Reference: patent publication EP2646050B1 (mAB-Factory GmbH, dated 2016)

Key:
Assay in all cases: peptide SPOT membrane
[1] = molecular target: 15mer peptide 55 of H5 (A/Anhui/1/2005) (Influenza A virus A/Anhui/1/2005 (H5N1))
[2] = molecular target: 15mer peptide 57 of H5 (A/Anhui/1/2005) (Influenza A virus A/Anhui/1/2005 (H5N1))
[3] = molecular target: 15mer peptide 56 of H5 (A/Anhui/1/2005) (Influenza A virus A/Anhui/1/2005 (H5N1))

Measured: binding result

B1: scFv-murine IgG1 Fc fusion of clone 8 (JM6_SC-D3) (Fc fusion)
chain: MAAVTLDESGGGLQKPGGGLSLVCKASGFPFSSYSMQWVRQAPGKGLEWVAGIGNAGSYTGYGAAVKGRATISRDNGQSTVRLQLNNLRAEDTGTYYCAKSAYAGSCAGCVDSIDAWGHGTEVMVSSGSASAPKLEEGEFSEARVALTQPSSVSANPGETVKITCSGDDSWYGWYQQKSPGSAPVTVIYYNNNRPSDIPLRFSGSTSGSTSTLTITGVQADDEAVYFCGSWDRSSGAGIFGAGTTLTVLGAA
no binding: all assays above
